From US11905559B2, “Materials and methods for controlling gene expression” (priority 2016, dated 2024)
Values joined by “and” are separate entries in the source; they are usually repeats but may differ in a detail not shown here. Equal entries are not always repeated.

Assays:
[1] = Constant-force (CF) single-molecule optical tweezers folding assay of guanine-aptamer RNAs in guanine buffer; format: physicochemical; details: for Equilibrium force F^eq / Folding rate kf / Unfolding rate ku / Transition distance ΔX / ΔG (0): 3 mM Mg^2+; for ΔG (0): zero force
Excerpt: The aptamer folding was monitored in real time using a constant-force (CF) assay. Equilibrium sampling techniques provide unprecedented insights into the rare events in the course of folding that are otherwise difficult to identify. The technique also allows for determination of the kinetic rates that has not been fully investigated in the guanine riboswitch. The relative dynamics of the helices have been investigated in ensemble and smFRET experiments, which indicated a non-dynamic P1-P3, upon which the P2 helix switches conformations. As shown in FIG. 6A (left panel), the RNA oscillated between the linear and the hairpin conformations (E↔D↔C) at 13 pN. The distances ΔXED=7.1±0.4 nm and ΔXDC=7.9±0.4 nm correspond to the folding of a 17±1 nt (P2) and 19±1 nt (P3) respectively (FIGS. 7A-B). The conversion of distances to nucleotides in CF assay are described in Table 2.
A miniaturized dual beam optical tweezers instrument was constructed with a sampling rate of 0.4, 4 and 40 kHz. Typically, in the tweezers set up (FIGS. 2A-E), a single-molecule of RNA is held between two beads via ˜550 nucleotide (nt) long Handles A and B. Preparation of Handles and the RNA is described in the section above. The streptavidin coated polystyrene bead (diameter 1.5-1.9 μm, Spherotech Inc.) is fixed on a micropipette via suction, and the anti-digoxigenin coated bead (diameter 4.0-4.9 μm, Spherotech Inc.) is held in the dual counter-propagating laser beam. The trap stiffness, K is measured at 0.04-0.06 pN/nm from the power spectrum analysis of the Brownian motion of the trapped bead. For power spectrum analysis, a polystyrene bead with diameter ˜4.6 μm is trapped in the counter-propagating laser beam in aqueous buffer with a fixed trap position. […] The average from 10 beads yielded K˜0.049±0.0008 pN/nm, and the stoke's drag coefficient, y=0.0364±0.0002 pN. s/μm. […] However, the autocorrelation time (τ0) defined as the τ1=1/2πfc as described by Zoldak et al., “Ultrafast folding kinetics and cooperativity of villin headpiece in single-molecule force spectroscopy”. Proc. Natl. Acad. Sci. U.S.A 110, 18156 (2013) sets the detection limit for the observable kinetics, which is different from the sampling frequencies. […] The ACF for the time series of force signal, Fi, with sampling rate δ and N data points, is calculated as,
In a constant-force (CF) experiment, the RNA is held at a preset force through feedback control. The preset force typically fluctuated around the mean with a standard deviation ±0.15 pN. In this mode, data is recorded from 4-40 kHz to capture the fast intermediates. The plots are shown as extension vs. time (as in FIG. 6A). In force-jump (FJ) assay, the force is suddenly jumped from one force to another, and then held constant thereafter, as shown in FIGS. 23A-B.
All FR, CF and FJ experiments were carried out at an ambient temperature, 25±0.5° C. The buffer in the microfluidics contained 10 mM Tris-HCl, pH 7.5 at 25° C., 250 mM NaCl, 3 mM MgCl2, and purine concentrations as indicated in wild-type aptamer. Unless stated otherwise, Mg^2+ concentration in the buffer was maintained at 3 mM in all experiments. The buffer in mutant m1 contained 5 mm Mg^2+ and 1 μM G, and in m3 contained 5 mM Mg^2+ and 200 nM Guanine. For the remaining m2, m4, m5 and m6 mutants, the buffer in single-molecule experiments was supplemented only with 3 mM Mg^2+ and 200 nM Guanine.
In the force-ramp experiment, the trap was moved away (pull cycle) from the micropipette at 200 nm/sec, which corresponded to a loading rate of 7-8 pN/sec. This movement of the trap exerted a tension at the ends of the tethered RNA aptamer. […] In the constant-force (CF) experiment, the RNA was held at a preset force (FIG. 6A). The loading rate in CF experiments was zero. The preset force typically fluctuated around the mean with standard deviation ±0.15 pN. […]

[2] = Isothermal titration calorimetry (ITC); format: binding; details: 30° C., 50 mM K^+ Hepes pH 7.5, 100 mM KCl, 10 mM MgCl2, read-out: KD for guanine
Procedure: For ITC experiments, wild-type G-aptamer and the mutant RNAs were synthesized by in vitro transcription of the DNA template and purified by denaturing polyacrylamide gel electrophoresis (PAGE). The ligand guanine was introduced in the syringe, while the RNA into the sample cell at a final concentration of 10 μM and 1 μM respectively. The concentrations were determined by absorbance reading using ε260=12010 M^−1 cm^−1 (guanine) and ε260=711400 M^−1 cm^−1 (RNA). The buffer in the syringe and the sample cell contained 50 mM K^+ Hepes (pH 7.5), 100 mM KCl, and 10 mM MgCl2. Binding reactions were performed at 30° C. on a MicroCal iTC200 instrument (Malvern) with a reference power of 6 μcal/sec, an initial delay of 60 secs and a stirring speed of 750 rpm. Guanine was titrated into the sample cell in 16 injections (2.5 μl each). The injection rate was 0.5 μl/sec and the spacing between the injections was maintained at 120 sec. Data was baseline corrected and fitted to a single-site binding model to obtain association constant (KA), stoichiometry (n) and binding enthalpy, ΔH. The dissociation constant (KD) and the binding free energy, ΔG was obtained from the fitted parameters using the following relations. All data analysis was performed using the Origin ITC software.
The ITC results are reported as mean±standard deviation from three independent experiments.

[3] = transition BA (P1 folding), 200 nM G (rates at 8.5 pN)
[4] = transition BA (P1 folding), F 8.5 pN, 200 nM G
[5] = transition BA (P1 folding), F 8.5 pN, 200 nM G, no helix width adjustment
[6] = transition BA (P1 folding), from data at 8.5 pN, 200 nM G
[7] = transition C′B (L2-L3 folding), 200 nM G (rates at 8.5 pN)
[8] = transition C′B (L2-L3 folding), F 8.5 pN, 200 nM G
[9] = transition C′B (L2-L3 folding), from data at 8.5 pN, 200 nM G
[10] = transition DC (P3 folding), 200 nM G (rates at 13 pN)
[11] = transition DC (P3 folding), F 13 pN, 200 nM G
[12] = transition DC (P3 folding), from data at 13 pN, 200 nM G
[13] = transition ED (P2 folding), 200 nM G (rates at 13 pN)
[14] = transition ED (P2 folding), F 13 pN, 200 nM G
[15] = transition ED (P2 folding), from data at 13 pN, 200 nM G
[16] = transition BA (P1 folding), F 8.0 pN, 1 uM G
[17] = transition C′B (L2-L3 folding), F 8.0 pN, 1 uM G
[18] = transition DC (P3 folding), F 12.0 pN, 1 uM G
[19] = transition ED (P2 folding), F 13.5 pN, 1 uM G

Row | Molecule | Equilibrium force F^eq [1, 3] | Folding rate kf [1, 4] | Unfolding rate ku [1, 4] | Transition distance ΔX [1, 5] | ΔG (0) [1, 6] | Equilibrium force F^eq [1, 7] | Folding rate kf [1, 8] | Transition distance ΔX [1, 8] | Unfolding rate ku [1, 8] | ΔG (0) [1, 9] | Equilibrium force F^eq [1, 10] | Folding rate kf [1, 11] | Transition distance ΔX [1, 11] | Unfolding rate ku [1, 11] | ΔG (0) [1, 12] | Equilibrium force F^eq [1, 13] | Folding rate kf [1, 14] | Transition distance ΔX [1, 14] | Unfolding rate ku [1, 14] | Kd [2] | further results
1 | m4: m4 mutant guanine sensing aptamer RNA (SEQ ID NO: 5); A59G/U67C in the P3 hairpin (nucleic acid, RNA, backbone and methylation of C not given here, A59G/U67C in the P3 hairpin) CACUCAUAUAAUCGCGUGGAUAUGGCACGCAAGUUUCUACCGGGCGCCGUAAACGUCCGACUAUGGGUG | 8.0 ± 0.1 pN | 0.33 ± 0.02 s⁻¹ | 1.0 ± 0.1 s⁻¹ | 9.5 ± 0.3 nm | −12.5 kBT and −12.5 ± 0.6 kBT | 7.6 ± 0.1 pN | 0.22 ± 0.02 s⁻¹ | 3.4 ± 0.1 nm | 0.56 ± 0.04 s⁻¹ | −6.1 ± 0.2 kBT | 13.0 ± 0.02 pN | 16.3 ± 0.3 s⁻¹ | 7.8 ± 0.2 nm | 16.5 ± 0.4 s⁻¹ | −17.3 ± 0.6 kBT | 13.9 ± 0.01 pN | 34.8 ± 1.1 s⁻¹ | 7.2 ± 0.2 nm | 8.8 ± 0.2 s⁻¹ | 3.59 ± 0.05 nM | L2-L3 kissing rate reduced versus wild-type ([1]; C′B folding rate): 4.5 fold; Barrier ΔGkiss^‡ prior to the L2-L3 interactions ([1]; free energy landscape transformed to zero force): ~8.4 kBT; Increase of P3 stability ΔG(0) versus wild-type ([1]; transition DC): 1 kT; ΔG (0) [1, 15]: −17.6 ± 0.6 kBT
2 | m6: m6 mutant guanine sensing aptamer RNA (SEQ ID NO: 7); U67A, shorter P3 hairpin and larger L3 loop (nucleic acid, RNA, backbone and methylation of C not given here, U67A, shorter P3 hairpin and larger L3 loop) CACUCAUAUAAUCGCGUGGAUAUGGCACGCAAGUUUCUACCGGGCACCGUAAAAGUCCGACUAUGGGUG | 8.3 ± 0.3 pN | 0.7 ± 0.02 s⁻¹ | 1.0 ± 0.1 s⁻¹ | 9.8 ± 0.2 nm | −13.9 ± 0.4 kBT | 7.2 ± 0.5 pN | 7.5 ± 0.2 s⁻¹ | 3.5 ± 0.2 nm | 23.9 ± 0.6 s⁻¹ | −6.1 ± 0.4 kBT | 10.6 ± 0.1 pN | 1.1 ± 0.03 s⁻¹ | 7.3 ± 0.1 nm | 115.4 ± 4.4 s⁻¹ | −11.1 kBT and −11.1 ± 0.3 kBT | 13.8 ± 0.03 pN | 23.9 ± 0.5 s⁻¹ | 7.1 ± 0.1 nm | 7.2 ± 0.2 s⁻¹ | 6.7 ± 0.63 nM | L2-L3 kissing faster than wild-type ([1]; C′B folding rate): 8.33 times; ΔG (0) [1, 15]: −17.1 ± 0.3 kBT
3 | m7: m7 mutant guanine sensing aptamer RNA (SEQ ID NO: 8); U25C in J1/2 (nucleic acid, RNA, backbone and methylation of C not given here) CACUCAUAUAACCGCGUGGAUAUGGCACGCAAGUUUCUACCGGGCACCGUAAAUGUCCGACUAUGGGUG |  |  |  |  |  |  |  |  |  |  |  |  |  |  |  |  |  |  |  | 16.9 ± 1 nM | Equilibrium force F^eq ([1]; transition BA (P1 folding), 1 uM G (rates at 8.0 pN)): 7.4 ± 0.2 pN; Folding rate kf [1, 16]: 0.5 ± 0.08 s⁻¹; Transition distance ΔX [1, 16]: 9.6 ± 0.3 nm; Unfolding rate ku [1, 16]: 1.7 ± 0.4 s⁻¹; ΔG (0) ([1]; transition BA (P1 folding), from data at 8.0 pN, 1 uM G): −11.8 kBT and −11.8 ± 0.6 kBT; Equilibrium force F^eq ([1]; transition C′B (L2-L3 folding), 1 uM G (rates at 8.0 pN)): 8.1 ± 0.4 pN; Folding rate kf [1, 17]: 0.9 ± 0.2 s⁻¹; Transition distance ΔX [1, 17]: 3.5 ± 0.2 nm; Unfolding rate ku [1, 17]: 1.2 ± 0.2 s⁻¹; ΔG (0) ([1]; transition C′B (L2-L3 folding), from data at 8.0 pN, 1 uM G): −6.5 kBT and −6.5 ± 0.5 kBT; Equilibrium force F^eq ([1]; transition DC (P3 folding), 1 uM G (rates at 12.0 pN)): 11.8 ± 0.05 pN; Folding rate kf [1, 18]: 16.6 ± 0.5 s⁻¹; Transition distance ΔX [1, 18]: 7.6 ± 0.2 nm; Unfolding rate ku [1, 18]: 28.3 ± 1.0 s⁻¹; ΔG (0) ([1]; transition DC (P3 folding), from data at 12.0 pN, 1 uM G): −14.8 ± 0.6 kBT; Equilibrium force F^eq ([1]; transition ED (P2 folding), 1 uM G (rates at 13.5 pN)): 13.3 ± 0.05 pN; Folding rate kf [1, 19]: 10.0 ± 0.3 s⁻¹; Transition distance ΔX [1, 19]: 7.1 ± 0.3 nm; Unfolding rate ku [1, 19]: 20.1 ± 0.5 s⁻¹; ΔG (0) ([1]; transition ED (P2 folding), from data at 13.5 pN, 1 uM G): −15.8 ± 1.0 kBT
